Measured values: article PMC13250567, “U1 snRNP and RNA polymerase II interaction is predominantly mediated by Prp40 rather than U1-70K in yeast” (Nucleic Acids Research, 2026)

Key:
Conditions in all cases: both partners purified
[1] = biological target: T1, yeast RNA polymerase II, purified (CBP tag on RPB3) (yeast, UniProt P04050 1-1733; P08518 1-1224; P16370 1-318; P20433 1-221; P20434 1-215; P20435 …); assay: pull-down; protein A-tagged protein on IgG resin incubated with 0.4 μM purified pol II in 20 mM Tris–HCl pH 8.0, 150 mM NaCl, 0.5 mM DTT, 1.5 h, 4 °C; Western blot with 8WG16 (RPB1) and anti-CBP (RPB3-CBP)
T1 construct: RPB1, largest subunit of yeast pol II, wild type with its CTD (26 heptapeptide repeats); RPB2 subunit of yeast pol II; RPB3 subunit of yeast pol II, TAP-tagged (CBP-TEV-protein A); CBP is left after TEV cleavage; RPB4 subunit of yeast pol II; RPB5 subunit of yeast pol II; RPB6 subunit of yeast pol II; RPB7 subunit of yeast pol II; RPB8 subunit of yeast pol II; RPB9 subunit of yeast pol II; RPB10 …

[2] = biological target: T1, yeast RNA polymerase II, purified (CBP …); assay: pull-down; GST fusion proteins on glutathione-Sepharose incubated with 1 μM purified pol II, 1.5 h, 4 °C; cleaved off with PreScission protease; Western blot with 8WG16 (RPB1) and anti-CBP
[3] = biological target: T1, yeast RNA polymerase II, purified (CBP …); assay: cross-linking; purified pol II and Prp40 FF4-6 at ~1:1.5 molar ratio in 20 mM HEPES pH 7.5, 150 mM NaCl, 1 mM MgCl2, 0.5 mM TCEP; 1 mM DSSO or 2 mM SDA, 1 h, 4 °C; LC-MS/MS

| Binder | binding result [2] | further results |
| --- | --- | --- |
| protein A-tagged Prp40 (full length) (natural protein, S. cerevisiae, UniProt P33203 1-583, looked up, yeast Prp40, full length, 583 residues; A TEV site lies between protein A and Prp40; also called ProtA-Prp40; source: yeast BCY123 (pRS414/GPD-protA-TEV-PRP40), purified on IgG resin; not shown: protein A, N-terminal, kept) MSIWKEAKDASGRIYYYNTLTKKSTWEKPKELISQEELLLRENGWKAAKTADGKVYYYNPTTRETSWTIPAFEKKVEPIAEQKHDTVSHAQVNGNRIALTAGEKQEPGRTINEEESQYANNSKLLNVRRRTKEEAEKEFITMLKENQVDSTWSFSRIISELGTRDPRYWMVDDDPLWKKEMFEKYLSNRSADQLLKEHNETSKFKEAFQKMLQNNSHIKYYTRWPTAKRLIADEPIYKHSVVNEKTKRQTFQDYIDTLIDTQKESKKKLKTQALKELREYLNGIITTSSSETFITWQQLLNHYVFDKSKRYMANRHFKVLTHEDVLNEYLKIVNTIENDLQNKLNELRLRNYTRDRIARDNFKSLLREVPIKIKANTRWSDIYPHIKSDPRFLHMLGRNGSSCLDLFLDFVDEQRMYIFAQRSIAQQTLIDQNFEWNDADSDEITKQNIEKVLENDRKFDKVDKEDISLIVDGLIKQRNEKIQQKLQNERRILEQKKHYFWLLLQRTYTKTGKPKPSTWDLASKELGESLEYKALGDEDNIRRQIFEDFKPESSAPTAESATANLTLTASKKRHLTPAVELDY |  | binding result [1]: binds |
| GST-fused Prp40 FF4 (351–415) (domain or fragment, S. cerevisiae, UniProt P33203 351-415, looked up, yeast Prp40 residues 351–415 (FF4); also called GST-FF4; source: E. coli (pGEX-6p-1), purified as GST fusion protein; not shown: GST, N-terminal, kept) NYTRDRIARDNFKSLLREVPIKIKANTRWSDIYPHIKSDPRFLHMLGRNGSSCLDLFLDFVDEQR | binds |  |
| GST-fused Prp40 FF2 (204–269) (domain or fragment, S. cerevisiae, UniProt P33203 204-269, looked up, yeast Prp40 residues 204–269 (FF2); also called GST-FF2; source: E. coli (pGEX-6p-1), purified as GST fusion protein; not shown: GST, N-terminal, kept) FKEAFQKMLQNNSHIKYYTRWPTAKRLIADEPIYKHSVVNEKTKRQTFQDYIDTLIDTQKESKKKL | binds |  |
| Prp40 FF4-6 (351–552) (domain or fragment, S. cerevisiae, UniProt P33203 351-552, looked up, yeast Prp40 residues 351–552 (FF4 to FF6); also called Prp40 FF4-6 protein; source: E. coli (pGEX-6p-1), purified) NYTRDRIARDNFKSLLREVPIKIKANTRWSDIYPHIKSDPRFLHMLGRNGSSCLDLFLDFVDEQRMYIFAQRSIAQQTLIDQNFEWNDADSDEITKQNIEKVLENDRKFDKVDKEDISLIVDGLIKQRNEKIQQKLQNERRILEQKKHYFWLLLQRTYTKTGKPKPSTWDLASKELGESLEYKALGDEDNIRRQIFEDFKPE |  | binding result [3]: binds |

Continued, in another order:

| binding result [2] | Binder | further results |
| --- | --- | --- |
| binds | GST-fused Prp40 FF1 (134–189) (domain or fragment, S. cerevisiae, UniProt P33203 134-189, looked up, yeast Prp40 residues 134–189 (FF1); also called GST-FF1; source: E. coli (pGEX-6p-1), purified as GST fusion protein; not shown: GST, N-terminal, kept) EAEKEFITMLKENQVDSTWSFSRIISELGTRDPRYWMVDDDPLWKKEMFEKYLSNR |  |
| binds | GST-fused Prp40 FF3 (270–335) (domain or fragment, S. cerevisiae, UniProt P33203 270-335, looked up, yeast Prp40 residues 270–335 (FF3); also called GST-FF3; source: E. coli (pGEX-6p-1), purified as GST fusion protein; not shown: GST, N-terminal, kept) KTQALKELREYLNGIITTSSSETFITWQQLLNHYVFDKSKRYMANRHFKVLTHEDVLNEYLKIVNT |  |
| binds | GST-fused Prp40 FF6 ext (488–583) (domain or fragment, S. cerevisiae, UniProt P33203 488-583, looked up, yeast Prp40 residues 488–583 (FF6 and the extension downstream of it, to the C-terminus); also called 6 extension; FF6 extension; source: E. coli (pGEX-6p-1), purified as GST fusion protein; not shown: GST, N-terminal, kept) NERRILEQKKHYFWLLLQRTYTKTGKPKPSTWDLASKELGESLEYKALGDEDNIRRQIFEDFKPESSAPTAESATANLTLTASKKRHLTPAVELDY |  |
